Test: Fingerprinting: demethylation activity on methoxy probes 1-5, Purpald colorimetric assay
Assay type: biochemical
Settings: formaldehyde formation, FIG. 5A
Protocol: To test the viability of compounds I-5 as probes, the fatty acid hydroxylase CYP102A1 (SEQ ID NO 1) from Bacillus megaterium and […] engineered variants thereof (SEQ ID NO 3, SEQ ID NO 4, SEQ ID NO 5, SEQ ID NO 6, SEQ ID NO 8, SEQ ID NO 11, SEQ ID NO 12, SEQ ID NO 14, SEQ ID NO 15) were fingerprinted. […] Parallel reactions with 1-5 were carried out using these P450s in purified form and a NADPH cofactor regeneration system containing a […] (PTDH).
We investigated the utility of these probes for high-throughput profiling of a large library of engineered monooxygenase variants. […] The P450 libraries were expressed in 96-well plates (DH5a cells) and screened against probes 1-5 in parallel to acquire a fingerprint for each functional P450 variant occurring in these libraries. Reactions with the probes (1 mM, 60 min) were carried out using cell lysate in the presence of the phosphite/PTDH cofactor regeneration system, and probe activity was quantified based on absorbance at 550 nm after 60-min incubation with Purpald (30 mM). […] This example illustrates how probes of general formula II such as compound 1-5 could be used for fingerprinting a large library of monooxygenases in a high throughput manner.
Expression and Fingerprinting of P450 Libraries in 96-Well Plates. 96-deep well plates containing 400 μL LB medium (100 mg ampicillin L-1) per well were inoculated with single colonies from the P450 libraries. The total number of screened P450 variants was about 10,000. In each plate, 8 wells were inoculated with the parent enzyme FL#62. […] P450 demethylation activity on probe 1-5 was measured in parallel reactions with the aid of a Beckman Coulter Multimek 96 automated pipettor and a TECAN Infinity plate reader. […] After incubation for 1 hour at room temperature, plates were added with 50 μL 2 M NaOH containing 150 mM Purpald and the absorbance at 550 nm measured using the plate reader. The measured demethylation activity of each P450 variant on the five probes was then normalized to the activity of the parent enzyme FL#62 (SEQ ID NO 15) from the same plate. […]

Molecule | probe activity on probes 1-5 (in words)
FL#41: engineered CYP102A1 variant used as reference P450 for fingerprint normalization, SEQ ID NO 3 (protein) MTIKEMPQPKTFGELKNLPLLNTDKPVQALMKIADELGEIFKFEAPGRVTRYLSSQRLIKEACDESRFDKNLSQALKFVRDFAGDGLATSWTHEKNWKKAHNILLPSFSQQAMKGYHAMMVDIAVQLVQKWERLNADEHIEVPEDMTRLTLDTIGLCGFNYRFNSFYRDQPHPFITSMVRALDEAMNKLQRANPDDPAYDENKRQFQEDIKVMNDLVDKIIADRKASGEQSDDLLTHMLNGKDPETGEPLDDENIRYQIITFLIAGHETTSGLLSFALYFLVKNPHVLQKAAEEAARVLVDPVPSYKQVKQLKYVGMVLNEALRLWPTAPAFSLYAKEDTVLGGEYPLEKGDELMVLIPQLHRDKTIWGDDVEEFRPERFENPSAIPQHAFKPFGNGQRACIGQQFALHEATLVLGMMLKHFDFEDHTNYELDIKETLTLKPEGFVVKAKSKKIPLGGIPSPSTEQSAKKVRKKAENAHNTPLLVLYGSNMGTAEGTARDLADIAMSKGFAPQVATLDSHAGNLPREGAVLIVTASYNGHPPDNAKQFVDWLDQASADEVKGVRYSVFGCGDKNWATTYQKVPAFIDETLAAKGAENIADRGEADASDDFEGTYEEWREHMWSDVAAYFNLDIENSEDNKSTLSLQFVDSAADMPLAKMHGAFSTNVVASKELQQPGSARSTRHLEIELPKEASYQEGDHLGVIPRNYEGIVNRVTARFGLDASQQIRLEAEEEKLAHLPLAKTVSVEELLQYVELQDPVTRTQLRAMAAKTVCPPHKVELEALLEKQAYKEQVLAKRLTMLELLEKYPACEMKFSEFIALLPSIRPRYYSISSSPRVDEKQASITVSVVSGEAWSGYGEYKGIASNYLAELQEGDTITCFISTPQSEFTLPKDPETPLIMVGPGTGVAPFRGFVQARKQLKEQGQSLGEAHLYFGCRSPHEDYLYQEELENAQSEGIITLHTAFSRMPNQPKTYVQHVMEQDGKKLIELLDQGAHFYICGDGSQMAPAVEATLMKSYADVHQVSEADARLWLQQLEEKGRYAKDVWAG | minimal yet detectable activity on all five probes
Wild-type CYP102A1: fatty acid hydroxylase CYP102A1 from Bacillus megaterium, SEQ ID NO 1 (protein, listed as Bacillus megaterium) MTIKEMPQPKTFGELKNLPLLNTDKPVQALMKIADELGEIFKFEAPGRVTRYLSSQRLIKEACDESRFDKNLSQALKFVRDFAGDGLFTSWTHEKNWKKAHNILLPSFSQQAMKGYHAMMVDIAVQLVQKWERLNADEHIEVPEDMTRLTLDTIGLCGFNYRFNSFYRDQPHPFITSMVRALDEAMNKLQRANPDDPAYDENKRQFQEDIKVMNDLVDKIIADRKASGEQSDDLLTHMLNGKDPETGEPLDDENIRYQIITFLIAGHETTSGLLSFALYFLVKNPHVLQKAAEEAARVLVDPVPSYKQVKQLKYVGMVLNEALRLWPTAPAFSLYAKEDTVLGGEYPLEKGDELMVLIPQLHRDKTIWGDDVEEFRPERFENPSAIPQHAFKPFGNGQRACIGQQFALHEATLVLGMMLKHFDFEDHTNYELDIKETLTLKPEGFVVKAKSKKIPLGGIPSPSTEQSAKKVRKKAENAHNTPLLVLYGSNMGTAEGTARDLADIAMSKGFAPQVATLDSHAGNLPREGAVLIVTASYNGHPPDNAKQFVDWLDQASADEVKGVRYSVFGCGDKNWATTYQKVPAFIDETLAAKGAENIADRGEADASDDFEGTYEEWREHMWSDVAAYFNLDIENSEDNKSTLSLQFVDSAADMPLAKMHGAFSTNVVASKELQQPGSARSTRHLEIELPKEASYQEGDHLGVIPRNYEGIVNRVTARFGLDASQQIRLEAEEEKLAHLPLAKTVSVEELLQYVELQDPVTRTQLRAMAAKTVCPPHKVELEALLEKQAYKEQVLAKRLTMLELLEKYPACEMKFSEFIALLPSIRPRYYSISSSPRVDEKQASITVSVVSGEAWSGYGEYKGIASNYLAELQEGDTITCFISTPQSEFTLPKDPETPLIMVGPGTGVAPFRGFVQARKQLKEQGQSLGEAHLYFGCRSPHEDYLYQEELENAQSEGIITLHTAFSRMPNQPKTYVQHVMEQDGKKLIELLDQGAHFYICGDGSQMAPAVEATLMKSYADVHQVSEADARLWLQQLEEKGRYAKDVWAG | no activity on three out of the five probes

Source: patent publication US9273342B2, “Methods and systems for evaluating and predicting the reactivity of monooxygenase enzymes” (University of Rochester, priority 2011, dated 2016)
